Legend:
[1] = test system: HeLa Kyoto; assay: melting temperature (median over replicates), in situ; higher = more thermally stable
[2] = test system: HeLa Kyoto; assay: solubility in G1/S (NP-40 vs SDS abundance) (log2 ratio); higher = more soluble; details: cell cycle stage: G1/S
[3] = test system: HeLa Kyoto; assay: thermal stability score vs G1/S (z-score of summed log2 fold changes over temperatures); higher = more thermally stable than in G1/S
[4] = test system: HeLa Kyoto; assay: solubility change mitosis vs G1/S (difference of NP-40 vs SDS log2 ratios) (log2 ratio difference); higher = more soluble in mitosis
[5] = cell cycle stage: early G1 (4.5 h after nocodazole release)
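Wherever melting temperature (median over replicates), in situ is given: HeLa Kyoto cells synchronized by double thymidine or nocodazole block, proteins quantified by TMT10plex mass spectrometry, three independent biological replicates.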
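Wherever solubility change mitosis vs G1/S (difference of NP-40 vs SDS log2 ratios) is given: synchronized HeLa Kyoto cells (double thymidine block for G1/S, nocodazole release for mitosis), protein amounts in NP-40 versus SDS lysates quantified by mass spectrometry, three biological replicates.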
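Wherever solubility in G1/S (NP-40 vs SDS abundance) is given: HeLa Kyoto cells arrested at G1/S by double thymidine block, proteins quantified by TMT10plex mass spectrometry in mild NP-40 versus SDS extracts, three biological replicates.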
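Wherever thermal stability score vs G1/S (z-score of summed log2 fold changes over temperatures) is given: synchronized HeLa Kyoto cells, proteins quantified by TMT10plex mass spectrometry, three biological replicates, mitosis taken 0.5 h after nocodazole release, G1/S directly after double thymidine block.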

| Sequence | melting temperature ([1]; cell cycle stage: G1/S) [°C] | melting temperature ([1]; cell cycle stage: mitosis) [°C] | solubility in G1/S (log2) [2] | thermal stability score [3, 5] | thermal stability score ([3]; cell cycle stage: mitosis) | solubility change mitosis (log2) [4] |
| --- | --- | --- | --- | --- | --- | --- |
| MRSAAKPWNPAIRAGGHGPDRVRPLPAASSGMKSSKSSTSLAFESRLSRLKRASSEDTLNKPGSTAASGVVRLKKTATAGAISELTESRLRSGTGAFTTTKRTGIPAPREFSVTVSRERSVPRGPSNPRKSVSSPTSSNTPTPTKHLRTPSTKPKQENEGGEKAALESQVRELLAEAKAKDSEINRLRSELKKYKEKRTLNAEGTDALGPNVDGTSVSPGDTEPMIRALEEKNKNFQKELSDLEEENRVLKEKLIYLEHSPNSEGAASHTGDSSCPTSITQESSFGSPTGNQMSSDIDEYKKNIHGNALRTSGSSSSDVTKASLSPDASDFEHITAETPSRPLSSTSNPFKSSKCSTAGSSPNSVSELSLASLTEKIQKMEENHHSTAEELQATLQELSDQQQMVQELTAENEKLVDEKTILETSFHQHRERAEQLSQENEKLMNLLQERVKNEEPTTQEGKIIELEQKCTGILEQGRFEREKLLNIQQQLTCSLRKVEEENQGALEMIKRLKEENEKLNEFLELERHNNNMMAKTLEECRVTLEGLKMENGSLKSHLQGEKQKATEASAVEQTAESCEVQEMLKVARAEKDLLELSCNELRQELLKANGEIKHVSSLLAKVEKDYSYLKEICDHQAEQLSRTSLKLQEKASESDAEIKDMKETIFELEDQVEQHRAVKLHNNQLISELESSVIKLEEQKSDLERQLKTLTKQMKEETEEWRRFQADLQTAVVVANDIKCEAQQELRTVKRKLLEEEEKNARLQKELGDVQGHGRVVTSRAAPPPVDEEPESSEVDAAGRWPGVCVSRTSPTPPESATTVKSLIKSFDLGRPGGAGQNISVHKTPRSPLSGIPVRTAPAAAVSPMQRHSTYSSVRPASRGVTQRLDLPDLPLSDILKGRTETLKPDPHLRKSPSLESLSRPPSLGFGDTRLLSASTRAWKPQSKLSVERKDPLAALAREYGGSKRNALLKWCQKKTQGYANIDITNFSSSWSDGLAFCALLHTYLPAHIPYQELNSQEKKRNLLLAFEAAESVGIKPSLELSEMLYTDRPDWQSVMQYVAQIYKYFET [SPECC1] | 52.2 | 51.5 | 0.148 | -1.45 | -1.95 | -0.147 |
| MKPRPAGFVDNKLKQRVIQYLTSNKCGKYVDIGVLASDLQRVYSIDYGRRKRNAFRIQVEKVFSIISSEKELKNLTELEDEHLAKRARQGEEDNEYTESYSDDDSSMEDYPDPQSANHMNSSLLSLYRKGNPDSVSNTPEMEQRETTSSTPRISSKTGSIPLKTPAKDSEGGWFIDKTPSVKKDSFFLDLSCEKSNPKKPITEIQDSKDSSLLESDMKRKGKLKNKGSKRKKEDLQEVDGEIEAVLQKKAKARGLEFQISNVKFEDVGGNDMTLKEVCKMLIHMRHPEVYHHLGVVPPRGVLLHGPPGCGKTLLAHAIAGELDLPILKVAAPEIVSGVSGESEQKLRELFEQAVSNAPCIIFIDEIDAITPKREVASKDMERRIVAQLLTCMDDLNNVAATARVLVIGATNRPDSLDPALRRAGRFDREICLGIPDEASRERILQTLCRKLRLPQAFDFCHLAHLTPGFVGADLMALCREAAMCAVNRVLMKLQEQQKKNPEMEDLPSKGVQEERLGTEPTSETQDELQRLLGLLRDQDPLSEEQMQGLCIELNDFIVALSSVQPSAKREGFVTVPNVTWADIGALEDIREELTMAILAPVRNPDQFKALGLVTPAGVLLAGPPGCGKTLLAKAVANESGLNFISVKGPELLNMYVGESERAVRQVFQRAKNSAPCVIFFDEVDALCPRRSDRETGASVRVVNQLLTEMDGLEARQQVFIMAATNRPDIIDPAILRPGRLDKTLFVGLPPPADRLAILKTITKNGTKPPLDADVNLEAIAGDLRCDCYTGADLSALVREASICALRQEMARQKSGNEKGELKVSHKHFEEAFKKVRSSISKKDQIMYERLQESLSR [NVL] | 53.8 | 52.7 | -1.77 | 1.41 | 1.19 | 0.882 |
| MMADGAAAGAGGSPSLRELRARMVAAANEIAKERRKQDVVNRVATHSSNIRSTFKPVIDGSMLKNDIKQRLARERREEKRRQQDANKETQLLEKERKTKLQYEKQMEERQRKLKERKEKEEQRRIAAEEKRHQKDEAQKEKFTAILYRTLERRRLADDYQQKRWSWGGSAMANSESKTANKRSASTEKLEQGTSALIRQMPLSSAGLQNSVAKRKTDKERSSSLNRRDSNLHSSTDKEQAERKPRVTGVTNYVMQYVTVPLRKCTSDELRAVMFPMSTMKIPPQTKVEESPLEKVETPPKASVDAPPQVNVEVFCNTSMEASPKAGVGMAPEVSTDSFPVVSVDVSPVVSTYDSEMSMDASPELSIEALPKVDLETVPKVSIVASPEASLEAPPEVSLEALPEVSVEAAPEGSLEAPPKGSAEVAPKESVKGSPKESMEASPEAMVKASPKTSLEASMEASPKAKARDAPKKSEMDKQALIPIAKKRLSSYTECYKWSSSPENACGLPSPISTNRQIQKNCPPSPLPLISKQSPQTSFPYKIMPIQHTLSVQSASSTVKKKKETVSKTTNRCEALSQRHMIYEESGNKSTAGIMNAEAATKILTELRRLAREQREKEEEERQREEMQQRVIKKSKDMAKEAVGGQAEDHLKLKDGQQQNETKKKKGWLDQEDQEAPLQKGDAKIKAQEEADKRKKEHERIMLQNLQERLERKKRIEEIMKRTRKTDVNASKVTETSSHDIYEEAEADNEESDKDSLNEMFPSAILNGTGSPTKFKMPFNNAKKMTHKLVFLEDGTSQVRKEPKTYFNGDLKNFRQKSMKDTSIQEVVSRPSSKRMTSHTTKTRKADETNTTSRSSAQTKSEGFHDILPKSSDTFRQ [MAP7D3] | 50.4 | 52.8 | -0.211 | 2.41 | 6.63 | 0.189 |
| MAPKFPDSVEELRAAGNESFRNGQYAEASALYGRALRVLQAQGSSDPEEESVLYSNRAACHLKDGNCRDCIKDCTSALALVPFSIKPLLRRASAYEALEKYPMAYVDYKTVLQIDDNVTSAVEGINRMTRALMDSLGPEWRLKLPSIPLVPVSAQKRWNSLPSENHKEMAKSKSKETTATKNRVPSAGDVEKARVLKEEGNELVKKGNHKKAIEKYSESLLCSNLESATYSNRALCYLVLKQYTEAVKDCTEALKLDGKNVKAFYRRAQAHKALKDYKSSFADISNLLQIEPRNGPAQKLRQEVKQNLH [TOMM34] | 47.4 | 48.8 | 0.584 | 0.535 | 1.04 | 0.108 |

From the supplement of paper PMC5998384
